Measured values reported in the supplement of paper PMC12855868.

B1: library; numbered along this chain (parent)
chain: MAAAGGARLLRAASAVLGGPAGRWLHHAGSRAGSSGLLRNRGPGGSAEASRSLSVSARARSSSEDKITVHFINRDGETLTTKGKVGDSLLDVVVENNLDIDGFGACEGTLACSTCHLIFEDHIYEKLDAITDEENDMLDLAYGLTDRSRLGCQICLTKSMDNMTVRVPETVADARQSIDVGKTS

Variants of: B1
Experiment: scaled log2 fold change in cell abundance, elesclomol vs control (0 = silent mean, 1 = nonsense mean) (scaled log2 ratio); higher = higher viability under elesclomol (loss of FDX1 cuproptosis function)
Conditions: glucose 10 mM
[1] = with ABC1 FDX1 KO, elesclomol 5 nM, 14 days
[2] = with HEK293T FDX1 KO, elesclomol 40 nM, 11 days
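Note: variant abundance is its share of total variant reads in each endpoint sample, from next-generation sequencing of the integrated ORF PCR-amplified out of genomic DNA.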

Variant	scaled log2 fold change [1]	scaled log2 fold change [2]
M163G	0.325	-0.225
M163E	0.522	0.691
M163P	0.859	0.441
M163I	0.122	0.861
M163H	0.707	0.257
R11D	0.509	
V165T	0.13	-0.566
R60F	0.0888	-0.201
R60T	-0.956	-0.542
R60Y	0.215	0.0482
L127D	0.521	-0.11
L127E	0.573	0.536
L79C	0.0853	-0.242
K66A	-0.0856	0.00324
K66F	-0.158	-0.676
C106F	1.03	1.44
I123E	0.111	-0.217
D132M	-0.07	-0.451
D132E	0.299	0.371
A21C	-0.145	-0.0664
G104F	0.647	0.268
G104V	0.949	1.02
G104E	1.19	0.941
G104A	0.243	-1.55

Variant	scaled log2 fold change [1]	scaled log2 fold change [2]
G104Q	1.05	0.891
S62A	-0.86	-0.876
I67S	0.0219	0.253
V167M	0.222	-0.0856
V167S	0.152	0.0174
L53R	0.0529	-0.455
L9N	0.353	-0.636
L9C	0.282	-0.0336
L156Q	0.697	0.562
F71H	1.22	1.17
F71P	1.18	1.13
F71N	1.07	1.17
K82F	-0.531	-0.243
A13D	0.543	-0.132
A13K	0.137	-0.0857
K182R	-0.345	0.0141
D146N	-0.093	0.538
D146R	-0.0353	
D146Y	0.1	0.0545
T109A	-0.1	0.103
S52P	-0.128	
S52W	0.257	-0.162
D65Y	0.323	0.288
D65K	-0.369	-0.531

Variant	scaled log2 fold change [1]	scaled log2 fold change [2]
E64P	0.158	0.0559
E64H	-0.531	-0.334
A172S	0.42	0.922
A172W	0.0817	0.744
A141D	0.178	-0.445
H26F	0.206	-0.237
H26E	0.356	0.955
D161V	-0.562	0.103
D161L	0.312	0.16
D161T	0.262	-0.0378
R166T	0.529	-0.473
R166A	0.373	0.284
G143P	0.108	-0.153
G143V	0.0102	-0.395
E107H	-0.0248	0.933
H116M	-1.26	0.245
H116W	-0.0982	0.125
H116P	0.152	0.891
L140H	-1.29	0.795
L140M	0.393	0.793
S148M	0.0932	0.216
S148K	0.496	-0.0219
S148Q	0.313	0.39
S148L	0.386	0.434

Variant	scaled log2 fold change [1]	scaled log2 fold change [2]
G86S	0.0131	0.985
S184K	-0.0652	0.0933
K84P	0.11	1.21
A7V	-0.5	0.903
A7T	0.268	
T81L	0.127	0.885
M160F	0.0868	0.149
Q176S	-0.0172	-0.0154
A47S	0.89	0.276
A111D	-0.231	0.497
A111L	0.263	0.862
S46E	0.844	0.526
S46V	0.489	0.421
S46F	0.279	0.769
S46H	0.263	1.09
T80S	-0.407	
T80F	0.473	-0.712
E133S	-1.5	
D173H	0.000185	-0.579
S56W	-0.00445	0.0272
S56T	0.0393	1.19
S34E	-0.124	-0.639
S34I	-0.128	-0.488
T164Q	-0.171	

Variant	scaled log2 fold change [1]	scaled log2 fold change [2]
T164S	-0.253	0.99
T164E	-0.00918	0.119
I100M	-0.119	-0.526
H27S	0.273	
A174K	-0.0242	0.0836
C112S	0.988	0.991
C112F	1.02	1.25
A57D	0.102	-0.382
A57T	0.0138	-0.39
A57G	-0.0446	1.2
V171C	-0.178	-0.0893
V16G	-0.0956	0.0318
V16R	-0.0133	
V16C	0.174	0.501
C155Q	0.507	
C155S	0.114	-0.635
N97E	-0.211	-1.28
G108Q	0.767	0.807
Y124M	-0.133	-0.153
I178N	0.142	0.216
N135W	-0.118	0.554
T183P	0.166	
T183S	0.172	-0.869
